The target of this assay is T1, His-IRSp53 (UniProt Q9UQB8 1-552).
T1 sequence (looked up): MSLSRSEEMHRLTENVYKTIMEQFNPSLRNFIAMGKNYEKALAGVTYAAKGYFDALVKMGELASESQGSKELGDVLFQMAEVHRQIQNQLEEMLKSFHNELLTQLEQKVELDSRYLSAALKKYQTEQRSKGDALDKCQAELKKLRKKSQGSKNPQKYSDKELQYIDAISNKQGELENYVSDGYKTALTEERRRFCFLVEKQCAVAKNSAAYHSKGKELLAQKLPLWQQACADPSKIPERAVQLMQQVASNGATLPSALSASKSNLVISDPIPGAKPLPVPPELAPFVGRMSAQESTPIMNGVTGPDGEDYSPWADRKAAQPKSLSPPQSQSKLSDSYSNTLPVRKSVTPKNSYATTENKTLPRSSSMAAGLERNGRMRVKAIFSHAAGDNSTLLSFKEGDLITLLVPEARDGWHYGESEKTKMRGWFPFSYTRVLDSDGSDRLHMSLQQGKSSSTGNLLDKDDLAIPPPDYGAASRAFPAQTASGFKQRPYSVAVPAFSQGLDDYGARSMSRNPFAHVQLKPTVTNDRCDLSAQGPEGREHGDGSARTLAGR
As to the kind of experiment: far-Western, overlay or dot blot; 10 pmoles of His-IRSp53, GST-IRSp53-SH3 or BSA spotted onto nitrocellulose, incubated with increasing concentrations of purified VASP; anti-VASP immunoblot; fraction bound against total VASP; apparent dissociation constant. The following applies: both partners purified. On the technique in general: Immunoblotting shows a protein as a band on a membrane.

This passage reports Kd results from publication PMC3140970, “The Eps8/IRSp53/VASP Network Differentially Controls Actin Capping and Bundling in Filopodia Formation” (PLoS Computational Biology, 2011).

B1: VASP, recombinant, cleaved from GST (natural protein, human, UniProt P50552 1-380, looked up)
chain: MSETVICSSRATVMLYDDGNKRWLPAGTGPQAFSRVQIYHNPTANSFRVVGRKMQPDQQVVINCAIVRGVKYNQATPNFHQWRDARQVWGLNFGSKEDAAQFAAGMASALEALEGGGPPPPPALPTWSVPNGPSPEEVEQQKRQQPGPSEHIERRVSNAGGPPAPPAGGPPPPPGPPPPPGPPPPPGLPPSGVPAAAHGAGGGPPPAPPLPAAQGPGGGGAGAPGLAAAIAGAKLRKVSKQEEASGGPTAPKAESGRSGGGGLMEEMNAMLARRRKATQVGEKTPKDESANQEEPEARVPAQSESVRRPWEKNSTTLPRMKSSSSVTTSETQPCTPSSSDYSDLQRVKQELLEEVKKELQKVKEEIIEAFVQELRKRGSP
notes: also called purified VASP; recombinant human VASP
For the molecule B1, the Kd came out at 12.5 nM.
